Assay results from US20090137002A1 (published 2009).

Experiments:
[1] = target: T1, recombinant mouse EphA4-Fc fusion protein (mouse, UniProt Q03137 20-547, limits assumed); assay: ELISA, well P15 [part 2]
T1 construct: also called mEphA4; not shown: Fc part, not described

[2] = target: T2, myc-tagged human EphB4 on transfected CHO cells (human, UniProt P54760 16-987); assay: FACS titration on CHO-EphB4 cells
T2 construct: whole, on cells; also called CHO-EphB4; CHO-hEphB4; not shown: myc tag
T2 sequence (looked up): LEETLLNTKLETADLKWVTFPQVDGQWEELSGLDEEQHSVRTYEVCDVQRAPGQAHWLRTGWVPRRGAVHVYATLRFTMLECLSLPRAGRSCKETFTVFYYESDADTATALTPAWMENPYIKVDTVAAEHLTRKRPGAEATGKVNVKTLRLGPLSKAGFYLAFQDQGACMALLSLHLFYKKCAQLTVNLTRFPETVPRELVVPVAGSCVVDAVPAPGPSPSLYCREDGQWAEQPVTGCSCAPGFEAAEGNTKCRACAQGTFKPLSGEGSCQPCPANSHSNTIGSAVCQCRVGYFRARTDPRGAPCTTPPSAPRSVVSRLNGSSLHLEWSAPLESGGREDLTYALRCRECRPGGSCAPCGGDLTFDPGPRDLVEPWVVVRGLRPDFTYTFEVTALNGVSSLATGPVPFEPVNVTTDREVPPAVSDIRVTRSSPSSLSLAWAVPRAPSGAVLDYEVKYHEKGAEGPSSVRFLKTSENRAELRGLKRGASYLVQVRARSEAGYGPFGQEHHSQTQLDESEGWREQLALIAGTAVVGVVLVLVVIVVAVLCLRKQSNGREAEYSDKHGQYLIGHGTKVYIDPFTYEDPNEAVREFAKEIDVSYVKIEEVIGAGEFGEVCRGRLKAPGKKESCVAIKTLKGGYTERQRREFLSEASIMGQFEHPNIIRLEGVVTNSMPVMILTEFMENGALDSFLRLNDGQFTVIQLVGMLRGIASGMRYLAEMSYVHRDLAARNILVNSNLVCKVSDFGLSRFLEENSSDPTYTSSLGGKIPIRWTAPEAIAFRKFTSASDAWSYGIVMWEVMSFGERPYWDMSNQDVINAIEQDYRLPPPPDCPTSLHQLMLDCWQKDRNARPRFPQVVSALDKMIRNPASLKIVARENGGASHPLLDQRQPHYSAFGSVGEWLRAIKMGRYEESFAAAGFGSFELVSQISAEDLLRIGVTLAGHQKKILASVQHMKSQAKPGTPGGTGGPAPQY

T1 sequence (Q03137 20-547 limits assumed): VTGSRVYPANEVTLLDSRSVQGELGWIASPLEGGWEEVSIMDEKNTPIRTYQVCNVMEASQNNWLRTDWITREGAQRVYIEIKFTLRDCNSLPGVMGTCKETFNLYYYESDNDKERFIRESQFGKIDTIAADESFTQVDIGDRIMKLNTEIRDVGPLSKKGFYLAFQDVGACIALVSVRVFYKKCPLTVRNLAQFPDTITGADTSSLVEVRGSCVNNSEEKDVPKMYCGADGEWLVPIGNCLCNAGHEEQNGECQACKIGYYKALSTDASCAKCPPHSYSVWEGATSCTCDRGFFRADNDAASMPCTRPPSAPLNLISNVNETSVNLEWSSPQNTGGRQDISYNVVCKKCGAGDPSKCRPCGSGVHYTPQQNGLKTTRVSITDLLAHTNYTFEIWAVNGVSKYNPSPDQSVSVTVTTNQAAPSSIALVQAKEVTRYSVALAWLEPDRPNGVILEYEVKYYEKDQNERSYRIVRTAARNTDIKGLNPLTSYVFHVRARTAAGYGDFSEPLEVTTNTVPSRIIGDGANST

B1: MOR03640 Fab (Fab, V domains shown)
VH: QVQLVESGGGLVQPGGSLRLSCAASGFTFNNSWMSWVRQAPGKGLEWVSNITSSSSMTHYADSVKGRFTISRDNSKNTLYLQMNSLRAEDTAVYYCARKGMSFYNNKYAKSMFDLWGQGTLVTVSS
VL: DIELTQPPSVSVAPGQTARISCSGDNLGKKYVHWYQQKPGQAPVLVIYYDSKRPSGIPERFSGSNSGNTATLTISGTQAEDEADYYCSAWTTTMMHIVFGGGTKLTVLG
notes: Monomeric HuCAL Fab, purified, MH-tagged
binding result [1]: no binding

B2: MOR03641 Fab (Fab, V domains shown)
VH: QVQLVQSGAEVKKPGSSVKVSCKASGGTFSTYAISWVRQAPGQGLEWMGRIIPIFGTANYAQKFQGRVTITADESTSTAYMELSSLRSEDTAVYYCARSSYTILTTYYNYNAMDNWGQGTLVTVSS
VL: DIQMTQSPSSLSASVGDRVTITCRASQNINNFLNWYQQKPGKAPKLLIYGSSILQSGVPSRFSGSGSGTDFTLTISSLQPEDFAVYYCHQVSDTSDTFGQGTKVEIKR
notes: Monomeric HuCAL Fab (VH1A, kappa1), purified, MH-tagged; also called 3541 [sic]
EC50 [2]: > 40 nM
